Experiment [1] deals with cynomolgus FOLR1 protein. The experiment can be described thus: ELISA cross binding to cynomolgus FOLR1 protein. Here is the method:
(§1) The ability of the antibodies to bind to human FOLR1 protein or to cross binding to cynomolgus FOLR1 protein was tested by standard ELISA. Briefly, the human FOLR1 (ACRO-FO1-H52H1) or cynomolgus FOLR1 protein (ACRO, F01-C52H8) with a His tag was diluted to 5 μg/ml with a carbonic acid coating solution at pH 9.6 and 100 μL antigen was coated in each well of 96-well microtiter plate at 4° C. overnight. The liquid in the wells was discarded and the wells were washed three times with PBST. The wells were then blocked with 4% skim milk powder-PBS (Sigma, D5652-1 L), using 300 μL/well and the plates incubated in 37° C. for 1 hour. The liquid in the wells was discarded, and the well were washed three times with PBS. Samples were added using 100 μL/well; PBS was added in the control group. The plates were incubated at 37° C. for 1 hour. The liquid in the wells was discarded and the wells were washed three times with PBST. HRP-goat anti-human IgG (Sigma, 118885-2ML) was added (with 1:5000 dilution, 100 μL/well) and the plates were incubated in 37° C. for 1 hour. Then the liquid in the wells was discarded, and the wells were washed five times with PBST. A TMB solution was added using 100 μL/well. 2M H2SO4 was added to each well using 50 μL to terminate the reaction after […]. The A450 values were read using a microplate reader.
On the technique in general: In an ELISA, binding on a coated surface is turned into a signal by an enzyme label.

Experiment [2] concerns the target T1, human FOLR1 protein (Homo sapiens, UniProt P15328).
T1 construct: His tag; purchased ACRO FO1-H52H1
In words: ELISA binding to human FOLR1 protein. As to the method:
as §1

The values that follow come from patent US20240207418A1, “LINKERS, DRUG LINKERS AND CONJUGATES THEREOF AND METHODS OF USING THE SAME” (ProfoundBio US Co., priority 2021, published 2024).

T1 sequence (P15328 25-234): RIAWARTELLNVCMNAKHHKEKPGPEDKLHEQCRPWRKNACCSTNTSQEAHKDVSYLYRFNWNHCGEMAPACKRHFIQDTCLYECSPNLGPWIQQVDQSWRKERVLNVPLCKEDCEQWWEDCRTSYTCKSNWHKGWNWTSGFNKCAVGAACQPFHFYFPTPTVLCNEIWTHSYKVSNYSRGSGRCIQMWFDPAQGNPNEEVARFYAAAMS

B1: F40: anti-FOLR1 antibody clone: "Clone F40 has a different HCDRs and LCDRs, and with different HFR and LFR" (antibody, V domains shown)
VH: EVQLLESGGGVVQPGRSLRLSCAASGFTFSSYAMHWVRQAPGKGLEWVAVISYDGSNKYYADSVKGRFIISRDNSKNTVYLQMNSLRAEDTAVYYCARPTYVFTYTGSSFDYWGQGTQVTVSS
VL: DIQVTQSPSSLSASLGDTVSITCRASRGLTDSVAWYQQKPGQAPKLLIYAASTLQSGVPSRFGGSGSGSYFTLTITSLQPEDVATYYCQNYKSAPWTFGQGTKVEIK
With B1, in experiment [1] (supernatant diluted 1x), the “OD450, Target: Cynomolgus/Rhesus macaque FOLR1, Protein, His Tag, Diluted 1x” value worked out at 1.354 OD450. Further, in experiment [1] (supernatant diluted 5x), the “OD450, Target: Cynomolgus/Rhesus macaque FOLR1, Protein, His Tag, Diluted 5x” value is 1.111 OD450. Further, the “OD450, Target: Cynomolgus/Rhesus macaque FOLR1, Protein, His Tag, Diluted 25x” value in experiment [1] (supernatant diluted 25x) is reported as 0.924 OD450. Further, in experiment [2] (supernatant diluted 1x), the “OD450, Target: Human FOLR1 Protein His Tag, Diluted 1x” value worked out at 0.811 OD450. In addition, the “OD450, Target: Human FOLR1 Protein His Tag, Diluted 5x” value in experiment [2] (supernatant diluted 5x) stood at 0.382 OD450. The “OD450, Target: Human FOLR1 Protein His Tag, Diluted 25x” value in experiment [2] (supernatant diluted 25x) stood at 0.163 OD450. In addition, the “Target binding, coating with Human FOLR1 Protein” value in experiment [2] (transfection supernatant, ELISA) came to 2.3860 OD450.
